# Measured values as given in patent publication US20240336672A1.
# B1: Cv2.3194 (recombinant human IgG1) (antibody)
# heavy: EVQLVESGGGLIQPGGSLRLSCAASGITVTSNYMSWVRQAPGKGLEWVSVIYPGGSTFYADSVKGRFTISRDNSKNTLYLQMNSLRAEDTAVYYCARDLVVYGMDVWGQGTTVTVSSASTKGPSVFPLAPSSKSTSGGTAALGCLVKDYFPEPVTVSWNSGALTSGVHTFPAVLQSSGLYSLSSVVTVPSSSLGTQTYICNVNHKPSNTKVDKKVEPKSCDKTHTCPPCPAPELLGGPSVFLFPPKPKDTLMISRTPEVTCVVVDVSHEDPEVKFNWYVDGVEVHNAKTKPREEQYNSTYRVVSVLTVLHQDWLNGKEYKCKVSNKALPAPIEKTISKAKQPREPQVYTLPPSRDELTKNQVSLTCLVKGFYPSDIAVEWESNGQPENNYKTTPPVLDSDGSFFLYSKLTVDKSRWQQGNVFSCSVMHEALHNHYTQKSLSLSPGK
# light: EIVLTQSPGTLSLSPGERATLSCRASQSVSSSYLAWYQQKPGQAPRLLIYGASSRATGIPGRFSGSGSGTDFTLTISRLEPEDFAIYYCQQGVTFGGGTKVEIKRTVAAPSVFIFPPSDEQLKSGTASVVCLLNNFYPREAKVQWKVDNALQSGNSQESVTEQDSKDSTYSLSSTLTLSKADYEKHKVYACEVTHQGLSSPVTKSFNRGEC
# Key:
# Details in all cases: remark: other sources report otherwise
# [1] = biological target: T1, SARS-CoV-2 Spike ectodomain (tri-S), Wuhan (SARS-CoV-2), P0DTC2; assay: competition ELISA vs bio-Cv2.1353
# [2] = biological target: T1, SARS-CoV-2 Spike ectodomain (tri-S), …; assay: tri-S/ACE2 blocking ELISA [B]
# [3] = biological target: T1, SARS-CoV-2 Spike ectodomain (tri-S), …; assay: competition ELISA vs bio-Cv2.3235
# [4] = biological target: SARS-CoV-2 RBD (P.1) domain (SARS-CoV-2); assay: RBD-ACE2 competition ELISA; design: unit not given beside the values
# [5] = biological target: SARS-CoV-2 RBD (B.1.351) domain (SARS-CoV-2); assay: RBD-ACE2 competition ELISA; design: unit not given beside the values
# [6] = biological target: SARS-CoV-2 RBD (B.1.1.7) domain (SARS-CoV-2); assay: RBD-ACE2 competition ELISA; design: unit not given beside the values
# [7] = biological target: T1, SARS-CoV-2 Spike ectodomain (tri-S), …; assay: competition ELISA vs bio-Cv2.3194
# [8] = biological target: SARS-CoV-2 RBD (P.1) domain (SARS-CoV-2); assay: ELISA; design: unit not given beside the values
# [9] = biological target: SARS-CoV-2 RBD (B.1.1.7) domain (SARS-CoV-2); assay: ELISA; design: unit not given beside the values
# [10] = biological target: SARS-CoV-2 RBD (P.1) domain (SARS-CoV-2); assay: RBD/ACE2 blocking ELISA
# [11] = biological target: SARS-CoV-2 RBD (B.1.351) domain (SARS-CoV-2); assay: RBD/ACE2 blocking ELISA
# [12] = biological target: SARS-CoV-2 RBD (B.1.1.7) domain (SARS-CoV-2); assay: RBD/ACE2 blocking ELISA
# [13] = biological target: SARS-CoV-2 RBD (P.1) domain (SARS-CoV-2); assay: competition ELISA, biotinylated RBD to immobilized ACE2 ectodomain
# [14] = biological target: SARS-CoV-2 RBD (B.1.351) domain (SARS-CoV-2); assay: as above
# [15] = biological target: SARS-CoV-2 RBD (B.1.1.7) domain (SARS-CoV-2); assay: as above
# [16] = biological target: T1, SARS-CoV-2 Spike ectodomain (tri-S), …; assay: competition ELISA, biotinylated tri-S to immobilized ACE2 ectodomain
# [17] = biological target: T1, SARS-CoV-2 Spike ectodomain (tri-S), …; assay: biotinylated tri-S on immobilised ACE2, competition ELISA
# [18] = biological target: T1, SARS-CoV-2 Spike ectodomain (tri-S), …; assay: tri-S capture ELISA
# [19] = biological target: T1, SARS-CoV-2 Spike ectodomain (tri-S), …; assay: ELISA; design: unit not given beside the values
# [20] = biological target: SARS-CoV-2 RBD (P.1) domain (SARS-CoV-2); assay: ELISA; design: unit not given beside the values; remark: listed apart in the source
# [21] = biological target: SARS-CoV-2 RBD (B.1.351) domain (SARS-CoV-2); assay: ELISA; design: unit not given beside the values
# [22] = biological target: SARS-CoV-2 RBD (B.1.1.7) domain (SARS-CoV-2); assay: ELISA; design: unit not given beside the values; remark: listed apart in the source
# [23] = biological target: T1, SARS-CoV-2 Spike ectodomain (tri-S), …; assay: ELISA, coated antigen
# [24] = biological target: T1, SARS-CoV-2 Spike ectodomain (tri-S), …; assay: competition ELISA vs bio-Cv2.1169
# [25] = biological target: T1, SARS-CoV-2 Spike ectodomain (tri-S), …; assay: SPR (Biacore), IgG immobilized, viral protein as analyte
# [26] = biological target: T1, SARS-CoV-2 Spike ectodomain (tri-S), …; assay: ELISA
# [27] = biological target: SARS-CoV-2 RBD (P.1) domain (SARS-CoV-2); assay: ELISA
# [28] = biological target: SARS-CoV-2 RBD (B.1.351) domain (SARS-CoV-2); assay: ELISA
# [29] = biological target: SARS-CoV-2 RBD (B.1.1.7) domain (SARS-CoV-2); assay: ELISA
binder,measurement,setting,value
B1,% inhibition (competition),[1],82
same,AUC of blocking,[2],181
same,% inhibition (competition),[3],97
same,AUC (RBD block.),[4],279
same,AUC (RBD block.),[5],335
same,AUC (RBD block.),[6],294
same,% inhibition (competition),[7],86
same,AUC (RBD bind.),[8],13
same,AUC (RBD bind.),[9],13
same,% binding inhibition,[10],94%
same,% binding inhibition,[11],95%
same,% binding inhibition,[12],97%
same,IC50,[13],0.412 µg/mL
same,IC90,[13],0.591 µg/mL
same,IC50,[14],0.206 µg/mL
same,IC90,[14],0.406 µg/mL
same,IC50,[15],0.212 µg/mL
same,IC90,[15],0.737 µg/mL
same,IC50,[16],0.093 µg/mL
same,IC90,[16],0.212 µg/mL
same,EC50,[17],0.31 µg/mL
same,triS Capt-ELISA,[18],2.3
same,AUC,[19],3
same,AUC,[20],3
same,AUC,[21],4
same,AUC,[22],3
same,ELISA OD,[23],3.6 OD
same,triS ELISA (AUC),[23],15.8 AUC
same,% inhibition (competition),[24],81
same,Kd,[25],0.459 nM
same,koff,[25],0.00112 s⁻¹
same,kon,[25],2.45e+06 M⁻¹ s⁻¹
same,OD405nm,[26],3.5
same,OD405nm,[27],3.4
same,OD405nm,[28],3.5
same,OD405nm,[29],3.4
